Experimental data taken from patent US20200317768A1 (published 2020).

Assays:
Assay in all cases: SPR (Biacore), antibody captured on chip, FcgR extracellular domain as analyte, 25 C
[1] = molecular target: T1, cynomolgus monkey FcγRIIa1 extracellular domain with C-terminal His-tag (cynomolgus monkey)
T1 construct: Expressed in FreeStyle 293 cells and purified; also called cyno FcγRIIa1; cynoFcgRIIa1; not shown: C-terminal His-tag
T1 chain: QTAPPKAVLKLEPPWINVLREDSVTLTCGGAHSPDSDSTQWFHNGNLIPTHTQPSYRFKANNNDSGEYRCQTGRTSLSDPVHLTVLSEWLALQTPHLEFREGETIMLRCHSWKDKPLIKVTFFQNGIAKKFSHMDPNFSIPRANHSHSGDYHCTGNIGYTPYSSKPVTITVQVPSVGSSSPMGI
Method: (§1) The kinetic analysis of interactions between these antibodies and FcγR was carried out using BIACORE® T200 or BIACORE® 4000 (GE Healthcare). HBS-EP+ (GE Healthcare) was used as the running buffer, and the measurement temperature was set to 25° C. A chip produced by immobilizing Protein A. Protein A/G or mouse anti-human IgG kappa light chain (BD Biosciences) onto a Series S Sensor Chip CM4 or CM5 (GE Healthcare) by the amine-coupling method was used. […] After the measurement, the antibody captured on the chip was washed off by allowing reaction with 10 mM glycine-HCl, pH1.5 and 25 mM NaOH so that the chip was regenerated and used repeatedly. The sensorgrams obtained as measurement results were analyzed by the 1:1 Langmuir binding model using the BIACORE® Evaluation Software to calculate the binding rate constant ka (L/mol/s) and dissociation rate constant kd (l/s), and the dissociation constant KD (mol/L) was calculated from these values. […] Regarding such interactions, KD values were calculated using the following 1:1 binding model described in BIACORE® T100 Software Handbook BR1006-48 Edition AE.
(§2) The resultant variants were expressed using M103202L889-SK1 as light chain and their affinity to human and cynoFcγRs were evaluated (Table 20).

[2] = molecular target: T2, human FcγRIIaR extracellular domain with C-terminal His-tag (human, UniProt P12318 34-217)
T2 construct: Expressed in FreeStyle 293 cells and purified; also called human FcγRIIa (type R); FcgRIIaR; not shown: C-terminal His-tag
T2 chain: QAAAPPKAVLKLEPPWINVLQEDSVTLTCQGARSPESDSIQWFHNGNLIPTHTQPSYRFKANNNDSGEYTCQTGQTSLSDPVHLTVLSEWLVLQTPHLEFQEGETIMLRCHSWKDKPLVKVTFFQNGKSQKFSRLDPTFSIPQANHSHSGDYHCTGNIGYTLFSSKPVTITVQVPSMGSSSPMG
Method: as §1, §2

[3] = molecular target: T3, cynomolgus monkey FcγRIIa2 extracellular domain with C-terminal His-tag (cynomolgus monkey)
T3 construct: Expressed in FreeStyle 293 cells and purified; also called cyno FcγRIIa2; cynoFcgRIIa2; not shown: C-terminal His-tag
T3 chain: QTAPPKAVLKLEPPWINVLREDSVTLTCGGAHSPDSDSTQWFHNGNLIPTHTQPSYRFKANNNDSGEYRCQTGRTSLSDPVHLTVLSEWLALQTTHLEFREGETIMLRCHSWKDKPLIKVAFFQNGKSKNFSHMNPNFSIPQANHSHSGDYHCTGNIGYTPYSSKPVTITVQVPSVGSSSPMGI
Method: as §1, §2

[4] = molecular target: T4, cynomolgus monkey FcγRIIb extracellular domain with C-terminal His-tag (cynomolgus monkey)
T4 construct: Expressed in FreeStyle 293 cells and purified; also called cyno FcγRIIb; cynoFcγRIIb; not shown: C-terminal His-tag
T4 chain: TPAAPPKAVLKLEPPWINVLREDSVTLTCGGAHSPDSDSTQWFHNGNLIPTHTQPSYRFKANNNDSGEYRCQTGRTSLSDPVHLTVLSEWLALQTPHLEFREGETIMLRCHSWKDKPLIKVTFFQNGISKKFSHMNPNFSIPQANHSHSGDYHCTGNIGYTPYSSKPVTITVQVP
Method: as §1, §2

[5] = molecular target: T5, human FcγRIIaH extracellular domain with C-terminal His-tag (human, UniProt P12318 34-217)
T5 construct: Expressed in FreeStyle 293 cells and purified; also called human FcγRIIa (type H); FcgRIIaH; not shown: C-terminal His-tag
T5 sequence: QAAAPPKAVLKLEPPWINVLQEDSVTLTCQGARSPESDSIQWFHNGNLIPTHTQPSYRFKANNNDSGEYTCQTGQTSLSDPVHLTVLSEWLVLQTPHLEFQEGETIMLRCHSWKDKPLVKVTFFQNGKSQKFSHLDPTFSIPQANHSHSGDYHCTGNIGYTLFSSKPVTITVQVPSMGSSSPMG
Method: as §1, §2

[6] = molecular target: T6, cynomolgus monkey FcγRIIIaS extracellular domain with C-terminal His-tag (cynomolgus monkey, UniProt Q8SPW2 21-206 at identity 1.00))
T6 construct: Expressed in FreeStyle 293 cells and purified; also called cyno FcγRIIIaS; cynoFcγRIIIaS; not shown: C-terminal His-tag
T6 chain: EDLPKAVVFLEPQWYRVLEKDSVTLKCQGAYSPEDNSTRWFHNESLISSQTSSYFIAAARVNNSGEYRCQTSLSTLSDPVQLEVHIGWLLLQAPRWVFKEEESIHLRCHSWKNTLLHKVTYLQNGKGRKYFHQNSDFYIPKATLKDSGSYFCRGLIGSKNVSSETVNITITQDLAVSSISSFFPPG
Method: as §1, §2

| Binder | Kd [1] [µM] | Kd [2] [µM] | Kd [3] [µM] | Kd [4] [µM] | Kd [5] [µM] | Kd [6] [µM] |
| --- | --- | --- | --- | --- | --- | --- |
| MS_M103205H795-SG1/M103202L889-SK1 (antibody, human IgG1, kappa, Anti-latent myostatin IgG; also called MS1032LO06-SG1) heavy: not shown light: DIVMTQSPATLSLSPGERATLSCTSSQSVYHANWLSWFQQKPGQPPKLLIYWASTLAYGVPSRFSGSGSGTDFTLTISSLQPEDAATYYCAGGYGGGRYAFGQGTKVEIKRTVAAPSVFIFPPSDEQLKSGTASVVCLLNNFYPREAKVQWKVDNALQSGNSQESVTEQDSKDSTYSLSSTLTLSKADYEKHKVYACEVTHQGLSSPVTKSFNRGEC | 3.2 | 1.1 | 5.1 | 1.8 | 0.69 | 0.36 |
| M103205H795-MY168 / M103202L889-SK1 (antibody, human IgG1, kappa, Position 396 variant derived from MY052, expressed with M103202L889-SK1 as light chain) heavy: QVTLKESGPVLVKPTETLTLTCTVSGIDLSHDDISWVRQAPGKGLEWVGIISYAGSTYYASWAKGRLTISKDTSKNQVVLTMTNMDPVDTATYYCARGVPAYSHGGDLWGQGTLVTVSSASTKGPSVFPLAPSSKSTSGGTAALGCLVKDYFPEPVTVSWNSGALTSGVHTFPAVLQSSGLYSLSSVVTVPSSSLGTQTYICNVNHKPSNTKVDKKVEPKSCDKTHTCPPCPAPELLNGPSVFLFPPKPKDTLMISRTPEVTCVVVDVSEEDPEVKFNWYVDGVEVHNAKTKPREEQYNSTYRVVSVLTVLHQDWLNGKEYKCKVSNKALPAPIEKTISKAKGQPREPQVYTLPPSREEMTKNQVSLTCLVKGFYPSDIAVEWESNGQPENNYKTTPAVLDSDGSFFLYSKLTVDKSRWQQGNVFSCSVMHEALHNHYTQKSLSLSP light: DIVMTQSPATLSLSPGERATLSCTSSQSVYHANWLSWFQQKPGQPPKLLIYWASTLAYGVPSRFSGSGSGTDFTLTISSLQPEDAATYYCAGGYGGGRYAFGQGTKVEIKRTVAAPSVFIFPPSDEQLKSGTASVVCLLNNFYPREAKVQWKVDNALQSGNSQESVTEQDSKDSTYSLSSTLTLSKADYEKHKVYACEVTHQGLSSPVTKSFNRGEC | 2.2 | 2.3 | 2.5 | 1.2 | 1.6 | 4.5 |
| M103205H795-MY052 / M103202L889-SK1 (antibody, human IgG1, kappa, Fc variant of M103205H795-SG1, expressed with M103202L889-SK1 as light chain; parent of the position 396 variants) heavy: QVTLKESGPVLVKPTETLTLTCTVSGIDLSHDDISWVRQAPGKGLEWVGIISYAGSTYYASWAKGRLTISKDTSKNQVVLTMTNMDPVDTATYYCARGVPAYSHGGDLWGQGTLVTVSSASTKGPSVFPLAPSSKSTSGGTAALGCLVKDYFPEPVTVSWNSGALTSGVHTFPAVLQSSGLYSLSSVVTVPSSSLGTQTYICNVNHKPSNTKVDKKVEPKSCDKTHTCPPCPAPELLNGPSVFLFPPKPKDTLMISRTPEVTCVVVDVSEEDPEVKFNWYVDGVEVHNAKTKPREEQYNSTYRVVSVLTVLHQDWLNGKEYKCKVSNKALPAPIEKTISKAKGQPREPQVYTLPPSREEMTKNQVSLTCLVKGFYPSDIAVEWESNGQPENNYKTTPMVLDSDGSFFLYSKLTVDKSRWQQGNVFSCSVMHEALHNHYTQKSLSLSP light: DIVMTQSPATLSLSPGERATLSCTSSQSVYHANWLSWFQQKPGQPPKLLIYWASTLAYGVPSRFSGSGSGTDFTLTISSLQPEDAATYYCAGGYGGGRYAFGQGTKVEIKRTVAAPSVFIFPPSDEQLKSGTASVVCLLNNFYPREAKVQWKVDNALQSGNSQESVTEQDSKDSTYSLSSTLTLSKADYEKHKVYACEVTHQGLSSPVTKSFNRGEC | 1.4 | 1.4 | 1.5 | 0.46 | 0.83 | 1.5 |
